Publication PMC7824274, “Separation of Coiled-Coil Structures in Lamin A/C Is Required for the Elongation of the Filament” (Cells, 2020)
Changes are numbered by the printed parent chain. Names and notes keep the numbering of the source.

B1: His-tagged lamin A/C 1-300 fragment, wild type (domain or fragment, human, UniProt P02545 1-300, looked up)
chain: METPSQRRATRSGAQASSTPLSPTRITRLQEKEDLQELNDRLAVYIDRVRSLETENAGLRLRITESEEVVSREVSGIKAAYEAELGDARKTLDSVAKERARLQLELSKVREEFKELKARNTKKEGDLIAAQARLKDLEALLNSKEAALSTALSEKRTLEGELHDLRGQVAKLEAALGEAKKQLQDEMLRRVDAENRLQTMKEELDFQKNIYSEELRETKRRHETRLVEIDNGKQREFESRLADALQELRAQHEDQVEQYKKELEKTYSAKLDNARQSAERNSNLVGAAHEELQQSRIRID
notes: lamin A/C, human, residues 1-300 (N-terminal head, coil 1a, L1, coil 1b and following residues); pProEx-HTa vector: a TEV protease cleavage site stands between the His-tag and the lamin residues; also called lamin 300 fragment; His-lamin 1-300 WT; source: E. coli BL21 (DE3), purified (cobalt-Talon, HiTrap Q, SEC); not shown: His-tag, N-terminal, kept
B2: His-tagged lamin A/C 1-300 fragment, L59R (domain or fragment, human, UniProt P02545 1-300, looked up)
chain: B1 chain with L59R
notes: lamin A/C, human, residues 1-300 with the CDM1A mutation L59R; pProEx-HTa vector: a TEV protease cleavage site stands between the His-tag and the lamin residues; also called His-lamin 1-300 L59R; lamin 300 L59R; source: E. coli BL21 (DE3), purified (cobalt-Talon, HiTrap Q, SEC); not shown: His-tag, N-terminal, kept
B3: His-tagged lamin A/C 1-300 fragment, I63S (domain or fragment, human, UniProt P02545 1-300, looked up)
chain: B1 chain with I63S
notes: lamin A/C, human, residues 1-300 with the EDMD mutation I63S; pProEx-HTa vector: a TEV protease cleavage site stands between the His-tag and the lamin residues; also called His-lamin 1-300 I63S; lamin 300 I63S; source: E. coli BL21 (DE3), purified (cobalt-Talon, HiTrap Q, SEC); not shown: His-tag, N-terminal, kept
B4: His-tagged lamin A/C 1-300 fragment, Y45C (domain or fragment, human, UniProt P02545 1-300, looked up)
chain: B1 chain with Y45C
notes: lamin A/C, human, residues 1-300 with the EDMD mutation Y45C; pProEx-HTa vector: a TEV protease cleavage site stands between the His-tag and the lamin residues; also called His-lamin 1-300 Y45C; lamin 300 Y45C; source: E. coli BL21 (DE3), purified (cobalt-Talon, HiTrap Q, SEC); not shown: His-tag, N-terminal, kept
B5: His-tagged lamin A/C 1-300 fragment, L35V (domain or fragment, human, UniProt P02545 1-300, looked up)
chain: B1 chain with L35V
notes: lamin A/C, human, residues 1-300 with the EDMD mutation L35V; pProEx-HTa vector: a TEV protease cleavage site stands between the His-tag and the lamin residues; also called His-lamin 1-300 L35V; lamin 300 L35V; source: E. coli BL21 (DE3), purified (cobalt-Talon, HiTrap Q, SEC); not shown: His-tag, N-terminal, kept
B6: lamin A/C 250-400 fragment, wild type, tag-free (domain or fragment, human, UniProt P02545 250-400, looked up)
chain: AQHEDQVEQYKKELEKTYSAKLDNARQSAERNSNLVGAAHEELQQSRIRIDSLSAQLSQLQKQLAAKEAKLRDLEDSLARERDTSRRLLAEKEREMAEMRARMQQQLDEYQELLDIKLALDMEIHAYRKLLEGEEERLRLSPSPTSQRSRG
notes: lamin A/C, human, residues 250-400 (C-terminal part of coil 2); His-tag cleaved with TEV protease; also called lamin 250-400; coil 2 fragment; source: E. coli BL21 (DE3), purified (cobalt-Talon, TEV cleavage, HiTrap Q, SEC); not shown: His-tag, N-terminal, cleaved
B7: His-tagged lamin A/C 1-125 fragment, wild type (domain or fragment, human, UniProt P02545 1-125, looked up)
chain: METPSQRRATRSGAQASSTPLSPTRITRLQEKEDLQELNDRLAVYIDRVRSLETENAGLRLRITESEEVVSREVSGIKAAYEAELGDARKTLDSVAKERARLQLELSKVREEFKELKARNTKKEG
notes: pProEx-HTa vector: a TEV protease cleavage site stands between the His-tag and the lamin residues; also called coil 1a fragment; source: E. coli BL21 (DE3), purified (cobalt-Talon, HiTrap Q, SEC); not shown: His-tag, N-terminal, kept
B8: His-tagged lamin A/C 1-125 fragment, Y45C (domain or fragment, human, UniProt P02545 1-125, looked up)
chain: B7 chain with Y45C
notes: pProEx-HTa vector: a TEV protease cleavage site stands between the His-tag and the lamin residues; source: E. coli BL21 (DE3), purified (cobalt-Talon, HiTrap Q, SEC); not shown: His-tag, N-terminal, kept
B9: His-tagged lamin A/C 1-125 fragment, I63S (domain or fragment, human, UniProt P02545 1-125, looked up)
chain: B7 chain with I63S
notes: as for B8
B10: His-tagged lamin A/C 1-125 fragment, L59R (domain or fragment, human, UniProt P02545 1-125, looked up)
chain: B7 chain with L59R
notes: pProEx-HTa vector: a TEV protease cleavage site stands between the His-tag and the lamin residues; also called His-lamin 1-125 L59R; source: E. coli BL21 (DE3), purified (cobalt-Talon, HiTrap Q, SEC); not shown: His-tag, N-terminal, kept

Columns and labels:
[1] = target: the molecule itself; test: not stated; purified lamin 300 fragments in solution; how the dimeric state was found is not told
[2] = target: B5; test: ITC; His-tagged lamin 300 fragments in the cell (25 uM), TEV-cleaved lamin 250-400 in the syringe (180 uM); PBS; 25 °C; 19 injections of 2 uL; conditions: both partners purified
[3] = target: B2; test: as above; conditions: both partners purified
[4] = target: B3; test: as above; conditions: both partners purified
[5] = target: T1, His-tagged lamin A/C 1-300 fragment, Y45C (human), P02545; test: as above; conditions: remark: other sources report otherwise
T1 chain: B1 chain with Y45C

[6] = target: B1; test: pull-down; His-tagged lamin 1-300 variants on Ni-NTA resin as bait, tag-free lamin 250-400 as prey; 20 mM Tris-HCl pH 8.0 with 50 mM or 150 mM NaCl; room temperature 30 min; SDS-PAGE; conditions: both partners purified
[7] = target: T2, lamin A/C 250-400 fragment, Y267C (human, UniProt P02545 250-400, Y267C); test: pull-down; His-tagged lamin 1-125 (wild type or L38C, L42C) on Ni-NTA resin, lamin 250-400 fragments (wild type or cysteine mutants) as prey; oxidized (0.5 mM GSSG) and reducing (5 mM TCEP) conditions; SDS-PAGE; conditions: both partners purified
T2 construct: lamin A/C, human, residues 250-400 with Y267C; the methods say that preys were His-tag cleaved; also called lamin 250-400 Y267C; source: E. coli BL21 (DE3), purified (cobalt-Talon, TEV cleavage, HiTrap Q, SEC); not shown: His-tag, N-terminal, cleaved
T2 sequence (looked up): B6 chain with Y18C

[8] = target: T3, lamin A/C 250-400 fragment, K316C (human, UniProt P02545 250-400, K316C); test: as above; conditions: both partners purified
T3 construct: lamin A/C, human, residues 250-400 with K316C; the methods say that preys were His-tag cleaved; also called lamin 250-400 K316C; source: E. coli BL21 (DE3), purified (cobalt-Talon, TEV cleavage, HiTrap Q, SEC); not shown: His-tag, N-terminal, cleaved
T3 sequence (looked up): B6 chain with K67C

[9] = target: B6; test: as above; conditions: both partners purified
[10] = target: B6; test: pull-down; His-tagged lamin 1-125 variants on Ni-NTA resin as bait, lamin 250-400 as prey; 20 mM Tris-HCl pH 8.0 with 50 mM NaCl; SDS-PAGE; conditions: both partners purified

Binder | stoichiometry N [1] | binding result [10] | further results
B1 | 2 |  | 
B2 | 2 |  | 
B3 | 2 |  | 
B4 | 2 |  | 
B5 | 2 |  | 
B6 |  |  | fold decrease of the interaction (KD) against wild type [2]: ~2 fold; fold increase of the interaction (KD) against wild type [3]: ~56 fold; fold increase of the interaction (KD) against wild type [4]: ~2 fold; fold decrease of the interaction (KD) against wild type [5]: 5 fold; binding result [6]: binds
B7 |  |  | binding result [7]: binds; binding result [8]: binds; binding result [9]: binds
B8 |  | binds | 
B9 |  | binds | 
B10 |  | binds | 
